Paper PMC8831596, “Structures of highly flexible intracellular domain of human α7 nicotinic acetylcholine receptor” (Nature Communications, 2022)

B1: human α7 nicotinic acetylcholine receptor TMD+ICD construct used for NMR (domain or fragment)
chain: SNAEEELYYGLNLLIPCVLISALALLVFLLPADSGEKISLGITVLLSLTVFMLLVAEIMPSTSDSSPSIAQYFASTMIIVGLSVVVTVIVLQYHHHDPDGGKMPKWTRVILLNWCAWFLRMKRPGEDKVRPACQHKQRRCSLASVEMSAVAPPPASNGNLLYIGFRGLDGVHCVPTPDSGVVCGRMACSPTHDEHLLHGGQPPEGDPDLAKILEEVRYIANRFRCQDESEAVCSEWKFAACVVDRLCLMAFSVFTIICTIGILMSAPNFVEE
notes: also called α7nAChR(TMD+ICD)NMR; α7nAChR TMD-ICD; source: E. coli Rosetta 2(DE3) pLysS, purified (NiNTA, SEC)
B2: PDZ domain of the intracellular scaffold protein PICK1 (domain or fragment, UniProt Q9NRD5 22-105, looked up)
chain: KVTLQKDAQNLIGISIGGGAQYCPCLYIVQVFDNTPAALDGTVAAGDEITGVNGRSIKGKTKVEVAKMIQEVKGEVTIHYNKLQ
notes: PICK1, PDZ domain; also called PICK1 PDZ domain
B3: α7nAChR TMD+ICD C219, single-cysteine construct labelled with MTSL (domain or fragment)
chain: B1 chain
modifications: MTSL on C219
B4: human α7 nicotinic acetylcholine receptor TMD + ICD construct (L209-V472) (domain or fragment, UniProt P36544 231-494, looked up)
chain: LYYGLNLLIPCVLISALALLVFLLPADSGEKISLGITVLLSLTVFMLLVAEIMPATSDSVPLIAQYFASTMIIVGLSVVVTVIVLQYHHHDPDGGKMPKWTRVILLNWCAWFLRMKRPGEDKVRPACQHKQRRCSLASVEMSAVAPPPASNGNLLYIGFRGLDGVHCVPTPDSGVVCGRMACSPTHDEHLLHGGQPPEGDPDLAKILEEVRYIANRFRCQDESEAVCSEWKFAACVVDRLCLMAFSVFTIICTIGILMSAPNFV
notes: human α7 nicotinic acetylcholine receptor, transmembrane domain plus intracellular domain, 264 residues L209-V472; Single-cysteine, spin-labelled and isotope-labelled versions gave the NMR and ESR restraints for the structure; also called α7nAChR TMD + ICD; source: E. coli Rosetta 2(DE3) pLysS, purified (NiNTA, SEC; pentamer fraction, in DPC or LDAO)

Key:
[1] = biological target: the molecule itself; experiment: SEC; Superdex 200 10/300 Increase GL, 10 mM sodium acetate pH 4.8, 100 mM NaCl, 0.05% LDAO; elution peak at 12.6 ml
[2] = biological target: B2; experiment: SPR; steady state; α7nAChR immobilised on an NTA sensor chip (1000-2000 RU), PICK1 PDZ domain flowed at 30 μl/min, 25 °C, Biacore 3000; receptor in 0.05% DDM; apparent dissociation constants, Langmuir isotherm, n=3; details: both partners purified
[3] = biological target: B2; experiment: SPR; steady state; α7nAChR immobilised on an NTA sensor chip (1000-2000 RU), PICK1 PDZ domain flowed at 30 μl/min, 25 °C, Biacore 3000; receptor in 0.05% LDAO; apparent dissociation constants, Langmuir isotherm, n=3; details: both partners purified
[4] = biological target: T1, full-length human α7 nicotinic acetylcholine receptor (human, UniProt P36544 23-502); experiment: SPR; steady state; α7nAChR immobilised on an NTA sensor chip (1000-2000 RU), PICK1 PDZ domain flowed at 30 μl/min, 25 °C, Biacore 3000; receptor in 0.05% DDM; apparent dissociation constants, Langmuir isotherm, n=3; details: both partners purified
T1 construct: human α7 nicotinic acetylcholine receptor, UniProtKB P36544 ACHA7_HUMAN, full length; also called α7nAChR; full length α7nAChR; source: E. coli Rosetta 2(DE3) pLysS, purified (NiNTA, SEC)

[5] = biological target: T1, full-length human α7 nicotinic …; experiment: SPR; steady state; α7nAChR immobilised on an NTA sensor chip (1000-2000 RU), PICK1 PDZ domain flowed at 30 μl/min, 25 °C, Biacore 3000; receptor in 0.05% LDAO; apparent dissociation constants, Langmuir isotherm, n=3; details: both partners purified
[6] = biological target: the molecule itself; experiment: DEER ESR; MTSL-labelled TMD+ICD C219 in LDAO micelles; non-adjacent/adjacent distance ratio ~1.6
[7] = biological target: the molecule itself; experiment: not stated; result shown in Supplementary Fig. 2 (not shown); the methods tell only that the pentamer fraction was isolated by SEC (S200 10/300, 20 mM HEPES pH 7.4, 300 mM NaCl, 0.2% DPC or 0.1% LDAO)

T1 sequence (P36544 23-502): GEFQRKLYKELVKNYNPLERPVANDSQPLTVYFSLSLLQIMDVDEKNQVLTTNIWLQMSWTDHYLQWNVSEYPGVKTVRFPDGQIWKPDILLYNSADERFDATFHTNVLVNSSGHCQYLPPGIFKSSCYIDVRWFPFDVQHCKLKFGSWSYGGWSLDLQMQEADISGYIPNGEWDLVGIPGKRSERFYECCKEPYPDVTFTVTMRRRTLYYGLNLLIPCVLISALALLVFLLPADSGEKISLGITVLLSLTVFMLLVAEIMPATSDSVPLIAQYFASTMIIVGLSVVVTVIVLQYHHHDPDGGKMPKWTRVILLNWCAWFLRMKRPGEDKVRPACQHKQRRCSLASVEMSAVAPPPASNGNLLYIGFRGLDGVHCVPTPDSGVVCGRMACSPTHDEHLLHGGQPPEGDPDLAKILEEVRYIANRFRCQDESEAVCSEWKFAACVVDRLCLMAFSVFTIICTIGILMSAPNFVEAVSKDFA

For B1, the “stoichiometry N” value [1] was 5, the Kd [2] was 4.2 µM and the Kd [3] was 4 µM.

Binder B2 has a Kd [4] of 3.3 µM and a Kd [5] of 3.1 µM.

In the case of B3, the “stoichiometry N” value [6] is reported as 5.

In the case of B4, the “stoichiometry N” value [7] is reported as 5.
